Data set [1] is described as follows: Stability assay in human plasma (UPLC-FLR). The format is in vitro ADME. The following applies: 90% human plasma; for stability in human plasma: within 6 h; for remaining at 72 h, 20 nM: human plasma (90%), 37° C., read-out: remaining amount after 72 h of incubation. How it is done:
FAM-labeled tri-GalNAc ligands were prepared with sterile water with final concentration of 200 nM. […] At the end of incubations, each mixture was added 300 μl of methanol to quench the reaction. The quenched samples were centrifuged at 20,000×g for 5 min and the supernatant was further filtered with 0.45 μm filters (Merck Millipore) to remove debris. The filtered samples were measured by UPLC-FLR detector (Waters, MA, USA).
5-FAM-CPMB-0013 (ID013), 5-FAM-CPMB-0023 (ID023) and commercialized tri-GalNAC were incubated with 90% of human plasma for different time points. The amount of each ligand was analyzed and quantified by UPLC system.

Data set [2] can be described thus: Cytotoxicity, viability of HepG2 cells by Cell Counting Kit-8 (CCK-8). The following applies: human, HepG2, 1.5625-50 μM, read-out: survival ratio of cells. The format is cell-based. Here is the method:
The cytotoxicity effect of cyclic peptide-tri-GalNAc were evaluated with the viability of HepG2 cells and analyzed by Cell Counting Kit-8 (CCK-8) (Dojindo Laboratories, Japan). The assay was performed according to manufacturer's protocol. Briefly, HepG2 were seeded in 96-well plates with a density of 6×10^4 cells per well and incubated at 37° C. with 5% CO2. As cells reached 70% confluence, medium was changed to MEM with 2% FBS and serial diluted cyclic peptide-tri-GalNAc with final concentration of 50, 25, 12.5, 6.25, 3.125 and 1.5625 μM were treated. After 24 h of treatment, 10 μL of CCK-8 solution was added to each well, and incubated for 1˜4 h at 37° C. The absorbance at 450 nm was measured by microplate reader (Thermo scientific, Multiskan sky, MA, USA). The survival ratio of cells treated with ID013, ID023 and commercialized tri-GalNAC are from 97˜100%.
On the technique in general: Formazan colour is commonly taken as a measure of viable cells.

In data set [3] the target is T1, asialoglycoprotein receptor (ASGPR) on HepG2 cells (human, UniProt P07306 1-291; P07307 1-311).
T1 construct: whole, on cells; also called ASGPR receptor on liver cells
T1 sequence (looked up) 1: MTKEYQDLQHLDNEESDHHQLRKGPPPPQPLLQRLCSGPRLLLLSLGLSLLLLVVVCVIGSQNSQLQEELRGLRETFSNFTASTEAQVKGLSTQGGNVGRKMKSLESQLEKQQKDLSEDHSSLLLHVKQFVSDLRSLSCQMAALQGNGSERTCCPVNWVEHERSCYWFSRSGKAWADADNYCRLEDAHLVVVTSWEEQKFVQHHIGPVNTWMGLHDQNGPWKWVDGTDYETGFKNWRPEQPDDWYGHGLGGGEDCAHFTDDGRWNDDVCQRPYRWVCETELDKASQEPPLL
T1 sequence (looked up) 2: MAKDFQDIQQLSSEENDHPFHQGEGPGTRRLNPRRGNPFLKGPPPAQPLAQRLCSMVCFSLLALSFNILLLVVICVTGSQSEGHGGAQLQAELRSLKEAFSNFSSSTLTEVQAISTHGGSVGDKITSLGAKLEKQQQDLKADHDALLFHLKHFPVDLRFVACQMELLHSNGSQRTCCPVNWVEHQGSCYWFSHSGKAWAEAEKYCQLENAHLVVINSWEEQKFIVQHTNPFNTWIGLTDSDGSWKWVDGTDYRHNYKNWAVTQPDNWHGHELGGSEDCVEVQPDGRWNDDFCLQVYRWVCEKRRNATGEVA
Kind of data set: flow cytometry titration on HepG2 cells (% FAM-positive cells, 1.6-200 nM, 24 h). Here is the method: Cells were seeded in 24-well plates with a density of 1.5×10⁵ cells per well and incubated under 37° C., 5% CO₂. After 18 h of incubation, media were replaced to MEM with 2% FBS and FAM-labeled ligands were added with final concentrations of 1.6, 8, 40 or 200 nM. After 24 h of incubation, cells were washed twice with 1×PBS and analyzed by LSRFortessa (BD Biosciences, NJ, USA). The binding efficiency was evaluated by the proportion of FAM positive cells.
HepG2 cell was treated by 14 cyclic peptide-tri-GalNAc ligand variants with serial diluted concentration of 1.6, 8, 40 or 200 nM. Commercialized tri-GalNAc used in Givosirna was used as positive control and cyclic peptide w/o tri-GalNAc was negative control. Among 14 variants, 5-FAM-CPMB-0013 (ID013), 5-FAM-CPMB-0023 (ID023) and 5-FAM-CPMB-0035 (ID035) had relatively higher binding ability as compared to others and commercialized tri-GalNAc. Equilibrium dissociation constant (kd) for 5-FAM-CPMB-0013 (ID013), 5-FAM-CPMB-0023 (ID023), 5-FAM-CPMB-0035 (ID035) and commercialized tri-GalNAC were 7.0, 8.6, 5.7 and 18 nM, respectively.

Data set [4] addresses asialoglycoprotein receptor (ASGPR) on HepG2 cells (human) (UniProt P07306). The description is as above.
For data set [5] the target is unchanged. The data set can be described thus: flow cytometry, % FAM-positive HepG2 cells after 24 h with 8 nM ligand.
The target is the same in data set [6]. The data set can be described thus: flow cytometry, % FAM-positive HepG2 cells after 24 h with 200 nM ligand.
Data set [7] shares this target. Kind of data set: flow cytometry, % FAM-positive HepG2 cells after 24 h with 1.6 nM ligand. In general terms: Flow cytometry measures light scatter and fluorescence of single cells or particles in a stream.
Data set [8] has the same target. Kind of data set: flow cytometry, % FAM-positive HepG2 cells after 24 h with 40 nM ligand.
Data set [9] shares this target. Kind of data set: flow cytometry, % FAM-positive HepG2 cells after 24 h with 1.6 nM ligand; negative control.
For data set [10] the target is unchanged. The data set can be described thus: flow cytometry, % FAM-positive HepG2 cells after 24 h with 40 nM ligand; negative control.
Data set [11] shares this target. The data set can be described thus: flow cytometry, % FAM-positive HepG2 cells after 24 h with 8 nM ligand; negative control.
Data set [12] has the same target. Kind of data set: flow cytometry, % FAM-positive HepG2 cells after 24 h with 200 nM ligand; negative control.

The source of these data is patent US20240218023A1, “CYCLIC PEPTIDE-N-ACETYLGALACTOSAMINE (GALNAC) CONJUGATES FOR DRUG DELIVERY TO LIVER CELLS” (MICROBIO (SHANGHAI) CO., LTD., priority 2021, published 2024).

Square brackets hold non-standard residues; d marks the D form. Side chains are listed from the residue outwards. * marks the point of attachment. Gal‑3 = GalNAc linker: 4-(GalNAc-oxy)butanoic acid (3-acetamido-4,5-diacetoxy-6-(acetoxymethyl)tetrahydropyran-2-yl-oxy)butanoic acid; 5FAM = O=C1OC2(c3ccc(O)cc3Oc3cc(O)ccc32)c2ccc(C(=O)*)cc21; Linker2 = 6-aminohexyl amide linker; GalNAc = N-acetylgalactosamine

As a reminder, the share remaining is what is left of the initial amount, in per cent. As a reminder, the Kd is the constant that tells how readily two partners part at equilibrium. The low end stands for tighter binding, the high end for weaker binding.

Consider `CC(=O)N[C@H]1[C@H](OCCCC(=O)NCCCC[C@@H]2NC(=O)CNC(=O)[C@H](CCCCNC(=O)CCCO[C@@H]3O[C@H](CO)[C@H](O)[C@H](O)[C@H]3NC(C)=O)NC(=O)[C@H](CCC(=O)NCCCCCCNC(=O)c3ccc4c(c3)C(=O)OC43c4ccc(O)cc4Oc4cc(O)ccc43)NC(=O)[C@H](CCCCNC(=O)CCCO[C@@H]3O[C@H](CO)[C@H](O)[C@H](O)[C@H]3NC(C)=O)NC(=O)CNC2=O)O[C@H](CO)[C@H](O)[C@@H]1O` [5-FAM-CPMB-0013], for which, in data set [1], the “stability in human plasma” value is on record as “highly stable” and the share remaining at 72 h, 20 nM amounted to 92.7%. Further, in [2], the viability at 24 h is 97 to 100%.
On to `CC(=O)N[C@H]1[C@H](OCCCC(=O)NCCCC[C@H]2NC(=O)CNC(=O)[C@@H](CCCCNC(=O)CCCO[C@@H]3O[C@H](CO)[C@H](O)[C@H](O)[C@H]3NC(C)=O)NC(=O)[C@@H](CCC(=O)NCCCCCCNC(=O)c3ccc4c(c3)C(=O)OC43c4ccc(O)cc4Oc4cc(O)ccc43)NC(=O)[C@@H](CCCCNC(=O)CCCO[C@@H]3O[C@H](CO)[C@H](O)[C@H](O)[C@H]3NC(C)=O)NC(=O)CNC2=O)O[C@H](CO)[C@H](O)[C@@H]1O` [5-FAM-CPMB-0023], for which, in data set [1], the “stability in human plasma” value is listed as “highly stable” and the amount remaining at 72 h, 20 nM turned out to be 85.8%. Besides, the viability at 24 h in [2] lay within 97 to 100%.

B1: 5-FAM-CPMB-0013 (peptide)
peptide: KEKGKG
modifications: head-to-tail cyclic; each Lys side chain carries GalNAc via linker Gal-3; Glu side chain carries Linker2 (6-aminohexyl amide) with 5-FAM
notes: also called ID013
On to B1, for which, in data set [3], binding was characterised by a dissociation constant (Kd) of 7 nM.
On to cyclo([dK]([Gal‑3-GalNAc])[dE]([Linker2-5FAM])[dK]([Gal‑3-GalNAc])G[dK]([Gal‑3-GalNAc])G) [5-FAM-CPMB-0023], for which, in data set [4], the Kd is 8.6 nM. For the same molecule, the Efficiency (%) (proportion of FAM positive cells) in data set [5] amounted to 47.2%; in data set [6] it was 99.2%; in [7] it was 6.2%; in data set [8], 91.2%.

B2: 5-FAM-CPMB-0035 (peptide)
peptide: KEKGKG
modifications: head-to-tail cyclic; D-Glu; each Lys side chain carries GalNAc via linker Gal-5; D-Glu side chain carries Linker2 with 5-FAM
For B2, in data set [4], the Kd came out at 5.7 nM. For the same molecule, the Efficiency (%) (proportion of FAM positive cells) in [5] was 63.2%; in [6], 99.5%; in [7], 11.1%; in [8], 95.2%.

B3: 5-FAM-CPMB-0031-Ac (negative control) (peptide)
peptide: cyclo(K[dE]([Linker2-5FAM])KGKG)
modifications: also: Lys side chains: Gal-1 with suffix -Ac per table, 'w/o tri-GalNAc' per text
Consider B3, for which the Efficiency (%) (proportion of FAM positive cells) is 0.1% in data set [9], 0.2% in data set [10], 0.1% in data set [11] and 0.4% in [12].
